Substitutions are numbered along the chain they refer to. Numbers in names are those of the source.
B1: PeAAO1 (Pleurotus eryngii; K583E/Q584R) (protein)
chain: ADFDYVVVGAGNAGNVVAARLTEDPDVSVLVLEAGVSDENVLGAEAPLLAPGLVPNSIFDWNYTTTAQAGYNGRSIAYPRGRMLGGSSSVHYMVMMRGSTEDFDRYAAVTGDEGWNWDNIQQFVRKNEMVVPPADNHNTSGEFIPAVHGTNGSVSISLPGFPTPLDDRVLATTQEQSEEFFFNPDMGTGHPLGISWSIASVGNGQRSSSSTAYLRPAQSRPNLSVLINAQVTKLVNSGTTNGLPAFRCVEYAEQEGAPTTTVCAKKEVVLSAGSVGTPILLQLSGIGDENDLSSVGIDTIVNNPSVGRNLSDHLLLPAAFFVNSNQTFDNIFRDSSEFNVDLDQWTNTRTGPLTALIANHLAWLRLPSNSSIFQTFPDPAAGPNSAHWETIFSNQWFHPAIPRPDTGSFMSVTNALISPVARGDIKLATSNPFDKPLINPQYLSTEFDIFTMIQAVKSNLRFLSGQAWADFVIRPFDPRLRDPTDDAAIESYIRDNANTIFHPVGTASMSPRGASWGVVDPDLKVKGVDGLRIVDGSILPFAPNAHTQGPIYLVGERGADLIKADQ
notes: secreted glycoprotein from P. pastoris X-33 (codon-optimised gene in pPICZA); signal peptide removed; theoretical 61 kDa, about 100 kDa on SDS-PAGE, 70 kDa deglycosylated; only mutants expressed (ER, NER, AER)
B2: PeAAO1 (Pleurotus eryngii; K583E/Q584R/V367A) (protein)
chain: B1 chain with V340A
notes: as for B1
B3: PeAAO1 (Pleurotus eryngii; D361N/K583E/Q584R) (protein)
chain: B1 chain with D334N
notes: as for B1

Experiments:
[1] = target: T1, PeAAO1 (Pleurotus eryngii, UniProt O94219, K583E/Q584R); experiment: flavin absorption spectrum; FAD released on heat denaturation; assay type: binding; conditions: non-covalently bound; absorbance maxima 463 and 383 nm
T1 construct: gene aao; secreted glycoprotein from P. pastoris X-33 (codon-optimised gene in pPICZA); signal peptide removed; theoretical 61 kDa, about 100 kDa on SDS-PAGE, 70 kDa deglycosylated; only mutants expressed (ER, NER, AER)

[2] = target: T2, PeAAO1 (Pleurotus eryngii, UniProt O94219, D361N/K583E/Q584R); experiment: as above; assay type: binding; conditions: non-covalently bound; absorbance maxima 463 and 383 nm
T2 construct: gene aao; secreted glycoprotein from P. pastoris X-33 (codon-optimised gene in pPICZA); signal peptide removed; theoretical 61 kDa, about 100 kDa on SDS-PAGE, 70 kDa deglycosylated; only mutants expressed (ER, NER, AER)

[3] = target: T3, PeAAO1 (Pleurotus eryngii, UniProt O94219, V367A/K583E/Q584R); experiment: as above; assay type: binding; conditions: non-covalently bound; absorbance maxima 463 and 383 nm
T3 construct: gene aao; secreted glycoprotein from P. pastoris X-33 (codon-optimised gene in pPICZA); signal peptide removed; theoretical 61 kDa, about 100 kDa on SDS-PAGE, 70 kDa deglycosylated; only mutants expressed (ER, NER, AER)

[4] = substrate: COc1ccc(CO)cc1OC; experiment: purified protein; assay type: biochemical, Pleurotus eryngii; conditions: 100 mM sodium phosphate pH 6, 25 °C, O2 as co-substrate, glycosylated enzyme

| Molecule | flavin absorption spectrum; FAD released on heat denaturation [1] | flavin absorption spectrum; FAD released on heat denaturation [2] | flavin absorption spectrum; FAD released on heat denaturation [3] | Km [4] | kcat [4] | kcat/Km [4] |
| --- | --- | --- | --- | --- | --- | --- |
| Cc1cc2nc3c(=O)[nH]c(=O)nc-3n(C[C@H](O)[C@H](O)[C@H](O)COP(=O)(O)OP(=O)(O)OC[C@H]3O[C@@H](n4cnc5c(N)ncnc54)[C@H](O)[C@@H]3O)c2cc1C [FAD] | calculated based on absorbance of the released FAD after heat precipitation of the apoprotein | calculated based on absorbance of the released FAD after heat precipitation of the apoprotein | calculated based on absorbance of the released FAD after heat precipitation of the apoprotein |  |  |  |
| B1 |  |  |  | 549.0 ± 12.6 µM | 54.9 ± 0.02 s⁻¹ | 100000 M⁻¹ s⁻¹ |
| B2 |  |  |  | 541.9 ± 6.4 µM | 58.5 ± 0.03 s⁻¹ | 108000 M⁻¹ s⁻¹ |
| B3 |  |  |  | 546.7 ± 5.8 µM | 68.2 ± 0.05 s⁻¹ | 125000 M⁻¹ s⁻¹ |
